Values of other authors as cited in publication PMC1991591.

Target: Fus3 (Saccharomyces cerevisiae) (UniProt P16892)
UniProt P16892, sequence (P16892 whole entry): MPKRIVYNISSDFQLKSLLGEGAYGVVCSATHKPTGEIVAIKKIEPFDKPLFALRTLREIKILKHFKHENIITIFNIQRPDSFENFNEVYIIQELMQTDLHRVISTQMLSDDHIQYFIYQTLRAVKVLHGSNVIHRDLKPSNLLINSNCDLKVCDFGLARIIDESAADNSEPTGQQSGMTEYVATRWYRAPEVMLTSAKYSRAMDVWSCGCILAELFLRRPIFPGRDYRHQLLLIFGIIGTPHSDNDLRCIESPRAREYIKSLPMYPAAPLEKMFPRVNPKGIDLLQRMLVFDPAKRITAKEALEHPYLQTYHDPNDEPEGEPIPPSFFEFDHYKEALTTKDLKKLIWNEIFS

Kd: 1000 nM
Substance: Ste5 (from UniProt P32917)
